Results on 3 substances are retold here after publication PMC7482061.

Holding throughout (test): SEC; Superdex S200 10/300 GL, buffer A (20 mM Tris-HCl pH 7.5, 18% glycerol) with 150 mM NaCl; mass from calibration with standard proteins; quaternary structure of the purified protein
A general note: SEC sorts molecules by how far they enter the pores of the column.

Assay [1] deals with FdpA (CD1157), class A flavodiiron protein of Clostridioides difficile (Clostridioides difficile).
For assay [2], the target named is revRbr1 (CD1474), reverse rubrerythrin 1 of Clostridioides difficile (Clostridioides difficile (strain 630Δerm genomic DNA)).
In assay [3] the target is revRbr2 (CD1524), reverse rubrerythrin 2 of Clostridioides difficile (Clostridioides difficile (strain 630Δerm genomic DNA)).

In general, stoichiometry N refers to the number of molecules, sites or subunits per partner or assembly.

For the substance “FdpA (CD1157), class A flavodiiron protein of Clostridioides difficile (enzyme)”, in assay [1], the stoichiometry N turned out to be 2.

“revRbr1 (CD1474), reverse rubrerythrin 1 of Clostridioides difficile (enzyme)” showed a stoichiometry N in assay [2] of 4.

On to “revRbr2 (CD1524), reverse rubrerythrin 2 of Clostridioides difficile (enzyme)”, for which the stoichiometry N in assay [3] came to 4.
